Drawing on article PMC3667722, this text covers p190B bound, percent of that bound to isoform 3A for one substance.

In test [1] the target is GST-p120-catenin isoform 4A (mouse). The test can be described thus: pull-down.
Test [2] concerns the target GST-p120-catenin isoform 4A Δ560–628 (mouse). The test can be described thus: pull-down.

GST-p120-catenin isoform 4A (mouse), sequence (P30999 whole entry, canonical isoform): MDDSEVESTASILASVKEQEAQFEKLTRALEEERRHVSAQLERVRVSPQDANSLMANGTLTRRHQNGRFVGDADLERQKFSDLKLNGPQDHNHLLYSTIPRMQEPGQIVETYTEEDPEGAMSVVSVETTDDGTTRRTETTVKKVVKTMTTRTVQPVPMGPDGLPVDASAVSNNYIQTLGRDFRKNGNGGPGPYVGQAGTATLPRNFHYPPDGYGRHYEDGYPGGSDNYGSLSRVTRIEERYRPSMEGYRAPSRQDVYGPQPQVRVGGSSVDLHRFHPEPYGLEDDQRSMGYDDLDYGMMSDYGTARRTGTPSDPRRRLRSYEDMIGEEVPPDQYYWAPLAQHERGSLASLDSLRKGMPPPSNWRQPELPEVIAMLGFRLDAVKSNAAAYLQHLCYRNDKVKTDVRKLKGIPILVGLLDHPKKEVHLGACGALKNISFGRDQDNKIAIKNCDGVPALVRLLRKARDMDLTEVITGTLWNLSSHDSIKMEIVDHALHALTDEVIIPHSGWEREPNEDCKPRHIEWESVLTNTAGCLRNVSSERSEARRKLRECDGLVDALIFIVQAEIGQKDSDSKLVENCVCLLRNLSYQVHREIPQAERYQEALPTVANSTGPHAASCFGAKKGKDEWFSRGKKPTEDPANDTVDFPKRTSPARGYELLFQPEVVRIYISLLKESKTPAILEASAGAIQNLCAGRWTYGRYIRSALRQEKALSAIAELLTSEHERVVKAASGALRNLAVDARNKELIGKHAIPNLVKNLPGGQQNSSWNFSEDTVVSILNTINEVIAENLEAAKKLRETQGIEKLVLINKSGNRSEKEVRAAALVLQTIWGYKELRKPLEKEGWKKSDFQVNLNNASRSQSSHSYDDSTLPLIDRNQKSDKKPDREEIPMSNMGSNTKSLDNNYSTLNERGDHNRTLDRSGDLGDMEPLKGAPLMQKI

Turning to “p190RhoGAP-B (from UniProt Q13017 1-1502) (natural protein)”, the figures for the p190B bound, percent of that bound to isoform 3A in test [1] and in test [2] were 43% and 38%, respectively.
